{"source": "patent US20220332804A1", "about": "(CSL INNOVATION, published 2022)", "test_in_all_cases": "SPR, KD relative to WT C2;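 also: biacore SPR at 37 °C, anti-C2 mAbs captured via immobilised goat anti-human IgG, C2 alanine or serine surface mutants as analytes, 1:1 model fitted, double-referenced sensograms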", "key": {"human C2 P724A": {"molecular_target": "T1, human C2 P724A (human, UniProt P06681 21-752)", "T1 sequence": "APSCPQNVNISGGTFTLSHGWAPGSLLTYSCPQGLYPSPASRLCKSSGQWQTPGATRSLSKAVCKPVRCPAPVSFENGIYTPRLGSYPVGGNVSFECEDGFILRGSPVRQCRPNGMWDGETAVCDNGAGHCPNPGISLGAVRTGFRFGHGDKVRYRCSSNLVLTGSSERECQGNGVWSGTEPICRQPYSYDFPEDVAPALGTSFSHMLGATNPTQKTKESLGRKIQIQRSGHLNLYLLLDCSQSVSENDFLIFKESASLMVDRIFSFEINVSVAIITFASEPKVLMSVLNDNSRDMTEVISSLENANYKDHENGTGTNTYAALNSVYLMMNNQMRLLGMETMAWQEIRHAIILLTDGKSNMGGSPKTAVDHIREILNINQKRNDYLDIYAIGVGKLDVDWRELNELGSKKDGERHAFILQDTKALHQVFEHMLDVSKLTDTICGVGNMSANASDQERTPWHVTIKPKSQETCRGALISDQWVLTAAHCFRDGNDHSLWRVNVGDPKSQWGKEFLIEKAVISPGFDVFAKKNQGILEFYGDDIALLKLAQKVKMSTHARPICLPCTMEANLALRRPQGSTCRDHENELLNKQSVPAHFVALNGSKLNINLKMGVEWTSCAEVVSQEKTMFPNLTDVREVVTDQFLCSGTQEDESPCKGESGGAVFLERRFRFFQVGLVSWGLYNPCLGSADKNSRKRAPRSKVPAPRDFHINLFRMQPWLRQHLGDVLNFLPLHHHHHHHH"}, "human C2 K415A": {"molecular_target": "T2, human C2 K415A (human, UniProt P06681 21-752)", "T2 sequence": "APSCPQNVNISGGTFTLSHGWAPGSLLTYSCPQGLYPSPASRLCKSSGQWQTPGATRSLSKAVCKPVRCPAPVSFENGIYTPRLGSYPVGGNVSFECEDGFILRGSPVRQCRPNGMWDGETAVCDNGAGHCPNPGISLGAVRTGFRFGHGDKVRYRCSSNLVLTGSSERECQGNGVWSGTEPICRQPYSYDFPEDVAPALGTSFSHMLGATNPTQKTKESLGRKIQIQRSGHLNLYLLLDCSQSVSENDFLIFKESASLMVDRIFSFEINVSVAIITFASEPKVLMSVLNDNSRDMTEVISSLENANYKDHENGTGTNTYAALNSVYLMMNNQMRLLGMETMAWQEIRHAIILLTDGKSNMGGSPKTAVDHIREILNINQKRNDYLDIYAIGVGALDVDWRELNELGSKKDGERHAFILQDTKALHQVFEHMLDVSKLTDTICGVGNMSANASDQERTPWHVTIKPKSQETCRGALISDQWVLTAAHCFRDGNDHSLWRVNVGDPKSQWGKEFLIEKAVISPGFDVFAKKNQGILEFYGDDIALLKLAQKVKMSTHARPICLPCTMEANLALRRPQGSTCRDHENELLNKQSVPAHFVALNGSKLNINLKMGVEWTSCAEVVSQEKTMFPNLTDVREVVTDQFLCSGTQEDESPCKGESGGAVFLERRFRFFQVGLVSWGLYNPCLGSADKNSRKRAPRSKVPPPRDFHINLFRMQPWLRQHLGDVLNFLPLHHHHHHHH"}, "human C2 S473A": {"molecular_target": "T3, human C2 S473A (human, UniProt P06681 21-752)", "T3 sequence": "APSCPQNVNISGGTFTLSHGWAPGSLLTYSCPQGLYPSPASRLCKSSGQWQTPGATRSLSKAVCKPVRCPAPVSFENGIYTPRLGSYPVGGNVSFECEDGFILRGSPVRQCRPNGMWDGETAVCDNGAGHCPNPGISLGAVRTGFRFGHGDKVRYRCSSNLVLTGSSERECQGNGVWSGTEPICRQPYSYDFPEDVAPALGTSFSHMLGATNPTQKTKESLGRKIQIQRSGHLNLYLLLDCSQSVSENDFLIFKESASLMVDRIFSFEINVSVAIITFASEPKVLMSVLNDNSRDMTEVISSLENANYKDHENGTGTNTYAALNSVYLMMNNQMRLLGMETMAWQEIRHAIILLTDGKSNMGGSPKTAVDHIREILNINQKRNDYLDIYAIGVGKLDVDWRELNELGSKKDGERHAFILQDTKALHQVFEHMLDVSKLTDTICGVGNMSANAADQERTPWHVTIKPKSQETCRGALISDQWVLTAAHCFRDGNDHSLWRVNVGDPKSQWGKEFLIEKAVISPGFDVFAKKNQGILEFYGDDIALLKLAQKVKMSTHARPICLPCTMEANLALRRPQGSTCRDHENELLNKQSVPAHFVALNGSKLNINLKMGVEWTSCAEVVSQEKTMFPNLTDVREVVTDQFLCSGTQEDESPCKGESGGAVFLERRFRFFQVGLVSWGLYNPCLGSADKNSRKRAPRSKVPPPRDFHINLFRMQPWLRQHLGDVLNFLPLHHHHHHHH"}, "human C2 D454A": {"molecular_target": "T4, human C2 D454A (human, UniProt P06681 21-752)", "T4 sequence": "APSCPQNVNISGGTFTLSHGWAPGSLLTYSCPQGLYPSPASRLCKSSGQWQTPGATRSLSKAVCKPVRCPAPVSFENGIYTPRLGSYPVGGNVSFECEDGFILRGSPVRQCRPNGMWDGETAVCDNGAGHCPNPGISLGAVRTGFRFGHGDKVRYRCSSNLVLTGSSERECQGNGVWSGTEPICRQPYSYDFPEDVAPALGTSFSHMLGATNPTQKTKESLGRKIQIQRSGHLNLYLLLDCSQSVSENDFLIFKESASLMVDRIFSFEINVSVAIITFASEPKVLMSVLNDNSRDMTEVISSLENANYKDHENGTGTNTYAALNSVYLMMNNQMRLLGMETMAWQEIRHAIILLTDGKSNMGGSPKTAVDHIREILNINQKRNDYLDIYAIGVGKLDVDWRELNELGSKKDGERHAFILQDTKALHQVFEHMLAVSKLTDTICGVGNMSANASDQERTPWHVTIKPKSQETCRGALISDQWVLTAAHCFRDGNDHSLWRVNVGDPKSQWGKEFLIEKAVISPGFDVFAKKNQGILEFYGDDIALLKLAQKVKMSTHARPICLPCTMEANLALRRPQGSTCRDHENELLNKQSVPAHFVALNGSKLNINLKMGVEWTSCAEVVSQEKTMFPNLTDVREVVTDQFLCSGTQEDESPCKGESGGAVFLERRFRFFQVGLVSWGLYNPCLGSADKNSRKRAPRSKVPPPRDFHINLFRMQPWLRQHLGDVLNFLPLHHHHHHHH"}}, "data": [{"binder": "RF16-226 (antibody, human IgG4 S228P, lambda, pH-dependent anti-C2 antibody from a phage display library; also called WT) heavy: not shown light: SYELTQPPSVSVSPGQTARITCSGDALTSKYVAWYQQKSGLAPLLVIYEDTRRPSGIPAKFSGSSSGSVATLTISGAHGDDEADYYCYSTDASGHQRVFGGGTKLTVLSQPKAAPSVTLFPPSSEELQANKATLVCLISDFYPGAVTVAWKADGSPVKAGVETTKPSKQSNNKYAASSYLSLTPEQWKSHRSYSCQVTHEGSTVEKTVAPTECS", "values": [{"measurement": "Fold diff", "setting": "human C2 P724A", "value": 40, "unit": "fold"}, {"measurement": "Fold diff", "setting": "human C2 K415A", "value": 1, "unit": "fold"}, {"measurement": "Fold diff", "setting": "human C2 S473A", "value": 1, "unit": "fold"}, {"measurement": "Fold diff", "setting": "human C2 D454A", "value": 25, "unit": "fold"}]}]}
